This is an account of results in IntAct's records for PubMed 16628218.

The test addresses T1, chio_human CHN2 (UniProt P52757).
T1 sequence: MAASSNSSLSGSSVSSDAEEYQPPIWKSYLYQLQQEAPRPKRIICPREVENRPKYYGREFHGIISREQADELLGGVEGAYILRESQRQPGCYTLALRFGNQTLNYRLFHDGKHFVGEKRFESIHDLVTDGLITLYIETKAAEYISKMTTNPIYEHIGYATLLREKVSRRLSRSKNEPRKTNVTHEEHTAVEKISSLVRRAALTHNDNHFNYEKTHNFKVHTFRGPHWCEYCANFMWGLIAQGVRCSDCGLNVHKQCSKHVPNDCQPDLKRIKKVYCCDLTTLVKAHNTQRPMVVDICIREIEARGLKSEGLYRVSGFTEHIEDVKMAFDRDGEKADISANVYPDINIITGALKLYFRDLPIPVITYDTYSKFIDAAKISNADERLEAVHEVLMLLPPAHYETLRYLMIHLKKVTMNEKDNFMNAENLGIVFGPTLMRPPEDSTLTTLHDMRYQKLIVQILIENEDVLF

On to “Ras-related C3 botulinum toxin substrate 1 (Homo sapiens) (from UniProt P63000) G12V”, for which the “effect of a mutation on the interaction” value was “increasing interaction”. Then “Ras-related C3 botulinum toxin substrate 1 (Homo sapiens) (from UniProt P63000) T17N”, with “disrupting interaction”.
